Test results from patent US11161912B2, “Heparanase-neutralizing monoclonal antibodies” (Technion Research & Development Foundation Limited, priority 2015, dated 2021).

Assays:
[1] = test system: heparanase (latent 65 kDa or GS3 constitutively active); experiment: Cellular uptake and processing of heparanase in HEK 293 cells (immunoblot); format: cell-based; conditions: GS3 1 μg/ml, mAb 10 μg/ml
From the text: Development of heparanase-neutralizing monoclonal antibodies: In order to target heparanase activity even more specifically, a panel of monoclonal antibodies (mAb) directed against the KKDC peptide (Lys158-Asn171) which comprises the substrate (HS)-binding domain of heparanase (Levy-Adam F, et al. 2005, J Biol Chem 280(21):20457-20466) were developed. In order to validate that the resulting antibodies target the heparin/HS binding domain, cellular uptake of latent 65 kDa heparanase in the absence or presence of the various newly generated mAbs was tested. This system appeared most relevant because previous studies have shown that heparanase uptake is HS-dependent (Gingis-Velitski S, et al. 2004. J Biol Chem 279(42):44084-44092). […] Moreover, liver metastasis of ESb cells was inhibited 4-5 fold by mAb 9E8 (FIG. 3C). The availability of highly specific heparanase-neutralizing mAbs led to the conclusion that heparanase enzymatic activity is required for cell invasion and tumor metastasis.
FIG. 3A. HEK 293 cells were incubated with latent 65 kDa (upper panel) or GS3 constitutively active heparanase (1 μg/ml; third panel) and the indicated mAbs (10 μg/ml). […] The mixture was then applied onto ^35S-labeled ECM-coated dishes and heparanase activity was determined as described above (lower panel). […] Quantification of the extent of CD45 staining is shown graphically in the lower panel. […]

U87 glioma cells = experiment: Matrigel cell invasion, U87 glioma cells; format: cell-based, human; conditions: mAb 2 μg, 6 h
Description: (§1) Cell invasion. Matrigel invasion assay was performed using modified Boyden chambers with polycarbonate Nucleopore membrane (Corning, Corning, N.Y.), essentially as described (17). Briefly, filters (6.5 mm in diameter, 8 μm pore-size) were coated with Matrigel (30 μl); Cells (2×10^5) in 100 μl of serum-free medium were seeded in triplicate on the upper part of each chamber, and the lower compartment was filled with 600 μl medium supplemented with 10% FCS. After incubation for 5 h at 37° C. in a 5% CO2 incubator, non-invading cells on the upper surface of the filter were wiped with a cotton swab, and migrated cells on the lower surface of the filter were fixed, stained with 0.5% crystal violet (Sigma) and counted by examination of at least seven microscopic fields.
(§2) FIG. 5A. Cell invasion. Cal-27 tongue carcinoma (left panels) and U87 glioma cells (right panels) (2×10^5) were plated onto Matrigel-coated filters in the presence of mouse IgM/IgG (upper panels), mAb 9E8 (2 μg; second left and middle panels). Invading cells adhering to the lower side of the membrane were visualized after 6 h. […] Lungs were harvested after 18 days, photographed (lower panel) and the number of metastatic lesions was counted (upper panel; p=0.001, 0.0006, 0.0001 for Con vs. Ab 1453, Con vs. mAb 9E8 and Con vs. SST0001, respectively). […]

Cal-27 tongue carcinoma = experiment: Matrigel cell invasion, Cal-27 tongue carcinoma cells; format: cell-based, human; conditions: Cal-27 cells, mAb 2 μg, 6 h
Description: as §1, §2

[2] = test system: ESb mouse T-lymphoma cells; experiment: ESb T-lymphoma spontaneous liver metastasis and survival; format: in vivo; conditions: ESb, mAb 500 μg/mouse every other day, 3 weeks
Description: Lymphoma cells were also inoculated subcutaneously at the right flank of 6-weeks-old NOD/SCID mice (human cell lines) or C57BL/6 mice (E1-4 mouse lymphoma cells) (n=7). Mice were treated with heparanase inhibitors (PG545; SST0001) or neutralizing antibodies and xenografts size was determined by externally measuring the tumors in 2 dimensions using a caliper. At the end of the experiment, mice were sacrificed; tumor xenografts were removed, weighed and fixed for histological and immunohistochemical analyses (Weissmann et al, 2016, Proc Natl Acad Sci USA 113:704-709). ESb mouse T-lymphoma cells (5×10^5) were similarly inoculated subcutaneously into SCID mice and spontaneous metastasis to the liver (Vlodaysky et al., 1983, Cancer Res 43:2704-2711) was examined after 3 weeks of treatment with PG545 or the neutralizing mAb, as described above. All animal experiments were approved by the Animal Care Committee of the Technion, Haifa, Israel.
FIG. 3A. HEK 293 cells were incubated with latent 65 kDa (upper panel) or GS3 constitutively active heparanase (1 μg/ml; third panel) and the indicated mAbs (10 μg/ml). The cell medium was aspirated at the time designated and cell lysates were subjected to immunoblotting applying anti-heparanase antibody (upper and third panels). […] Heparanase-transfected 293 cells were grown with control mouse IgM or mAb 9E8 for two days. Cells were then fixed with methanol and subjected to immunofluorescent staining applying anti heparanase antibody (second panel) or lysed and subjected to immunoblotting applying anti-heparanase antibody (fourth panel). Purified recombinant active heparanase (200 ng) was pre-incubated with control mouse IgM ( ? ), mAb 8A5 ( ? ), mAb 9E8 ( ? ), all at 2 μg/ml, for 2 h in serum-free RPMI medium on ice. The mixture was then applied onto ^35S-labeled ECM-coated dishes and heparanase activity was determined as described above (lower panel). FIG. 3B, C. […] Quantification of the extent of CD45 staining is shown graphically in the lower panel. […]

B1: mAb 9E8: monoclonal IgM raised against KKDC peptide (Lys158-Asn171) of heparanase; VH SEQ ID NO: 7, VL SEQ ID NO: 8 (antibody)
VH: EVKLLESGGGLVQPGGSLKLSCAASGFDFSRYWMSWVRQAPGKGLEWIGEINPDSSTINYTPSLKDKFIISRDNAKNTLYLQMSKVRSEDTALYYCARRGYEGNYAMDYWGQGTSVTVSSESQSFPNVFPLVSCESPLSDKNLVAMGCLAR
VL: DIVMTQAAPSVPVTPGESVSISCRSSKSLLHSNGNTYLYWFLQRPGQSPQLLIYRMSNLASGVPDRFSGSGSGTAFTLRISRVEAEDVGVYYCMQHLEYPFTFGSGTKLEIKRADAAPTVSIFPPSSEQLTSGGASVVCFL
modifications: IgM constant regions
- uptake of constitutively active heparanase (GS3) [1]: inhibited profoundly
- cell invasion (U87 glioma cells): inhibitory effect
- cell invasion (Cal-27 tongue carcinoma): inhibitory effect
- inhibition of liver metastasis (CD45 staining) [2]: 4-5 fold
